What was measured:
[1] = molecular target: T1, Purified recombinant human CD26 (rhDipeptidyl peptidase IV), R&D Systems CAT #1180-SE (human, UniProt P27487 29-766); test: SPR (Biacore)
T1 construct: Bought recombinant protein; also called hu-CD26; soluble human CD26

[2] = molecular target: T2, human CD26-derived 13 mer peptide 74 (human); test: peptide microarray
T2 peptide: IYNGITDWVYEEE
Protocol: (§1) The overnight incubation was followed by three washings with each of PBS buffer pH 7.5 and water. The microarrays were then scanned using ArrayWorx-Microarray Scanner.
(§2) The SPOT recognition software package ArrayPro was used for data analysis. The mean of signal intensities from 3 identical subarrays on each microarray image was used for data evaluation.

[3] = molecular target: T3, human CD26-derived 13 mer peptide 18 (human); test: peptide microarray
T3 peptide: EYGNSSVFLENST
Protocol: as §1, §2

[4] = molecular target: T4, human CD26-derived 13 mer peptide 123 (human); test: peptide microarray
T4 peptide: SMLIGDHYLCDVT
Protocol: as §1, §2

[5] = molecular target: T5, human CD26-derived 13 mer peptide 65 (human); test: peptide microarray
T5 peptide: IEPNLPSYRITWT
Protocol: as §1, §2

[6] = molecular target: T6, human CD26-derived 13 mer peptide 63 (human); test: peptide microarray
T6 peptide: IYVKIEPNLPSYR
Protocol: as §1, §2

[7] = molecular target: T7, human CD26-derived 13 mer peptide 90 (human); test: peptide microarray
T7 peptide: AQFNDTEVPLIEY
Protocol: as §1, §2

[8] = molecular target: T8, human CD26-derived 13 mer peptide 51 (human); test: peptide microarray
T8 peptide: IPNNTQWVTWSPV
Protocol: as §1, §2

[9] = molecular target: T9, human CD26-derived 13 mer peptide 77 (human); test: peptide microarray
T9 peptide: DWVYEEEVFSAYS
Protocol: as §1, §2

[10] = molecular target: T10, human CD26-derived 13 mer peptide 47 (human); test: peptide microarray
T10 peptide: RQLITEERIPNNT
Protocol: as §1, §2

[11] = molecular target: T11, human CD26-derived 13 mer peptide 9 (human); test: peptide microarray
T11 peptide: SDHEYLYKQENNI
Protocol: as §1, §2

[12] = molecular target: T12, human CD26-derived 13 mer peptide 103 (human); test: peptide microarray
T12 peptide: VRVPYPKAGAVNP
Protocol: as §1, §2

[13] = molecular target: T13, human CD26-derived 13 mer peptide 88 (human); test: peptide microarray
T13 peptide: FLAYAQFNDTEVP
Protocol: as §1, §2

[14] = molecular target: T14, human CD26-derived 13 mer peptide 80 (human); test: peptide microarray
T14 peptide: EVFSAYSALWWSP
Protocol: as §1, §2

[15] = molecular target: T15, human CD26-derived 13 mer peptide 10 (human); test: peptide microarray
T15 peptide: HEYLYKQENNILV
Protocol: as §1, §2

[16] = molecular target: T16, human CD26-derived 13 mer peptide 35 (human); test: peptide microarray
T16 peptide: LEYNYVKQWRHSY
Protocol: as §1, §2

[17] = molecular target: T17, human CD26-derived 13 mer peptide 122 (human); test: peptide microarray
T17 peptide: PASMLIGDHYLCD
Protocol: as §1, §2

[18] = molecular target: T18, human CD26-derived 13 mer peptide 116 (human); test: peptide microarray
T18 peptide: SVTNATSIQITAP
Protocol: as §1, §2

[19] = molecular target: T19, human CD26-derived 13 mer peptide 46 (human); test: peptide microarray
T19 construct: also called NKRQL1TEERIPN
T19 peptide: NKRQLITEERIPN
Protocol: as §1, §2

[20] = molecular target: T20, human CD26-derived 13 mer peptide 43 (human); test: peptide microarray
T20 peptide: YDIYDLNKRQLIT
Protocol: as §1, §2

[21] = molecular target: T21, human CD26-derived 13 mer peptide 94 (human); test: peptide microarray
T21 peptide: PLIEYSFYSDESL
Protocol: as §1, §2

[22] = molecular target: T22, human CD26-derived 13 mer peptide 53 (human); test: peptide microarray
T22 peptide: TQWVTWSPVGHKL
Protocol: as §1, §2

[23] = molecular target: T23, human CD26-derived 13 mer peptide 71 (human); test: peptide microarray
T23 peptide: TGKEDIIYNGITD
Protocol: as §1, §2

[24] = molecular target: T24, human CD26-derived 13 mer peptide 124 (human); test: peptide microarray
T24 peptide: LIGDHYLCDVTWA
Protocol: as §1, §2

[25] = molecular target: T25, human CD26-derived 13 mer peptide 3 (human); test: peptide microarray
T25 peptide: TYRLKLYSLRWIS
Protocol: as §1, §2

[26] = molecular target: T26, human CD26-derived 13 mer peptide 87 (human); test: peptide microarray
T26 peptide: GTFLAYAQFNDTE
Protocol: as §1, §2

[27] = molecular target: T27, human CD26-derived 13 mer peptide 21 (human); test: peptide microarray
T27 peptide: VFLENSTFDEFGH
Protocol: as §1, §2

[28] = molecular target: T28, human CD26-derived 13 mer peptide 129 (human); test: peptide microarray
T28 peptide: TWATQERISLQWL
Protocol: as §1, §2

[29] = molecular target: T29, human CD26-derived 13 mer peptide 128 (human); test: peptide microarray
T29 peptide: DVTWATQERISLQ
Protocol: as §1, §2

[30] = molecular target: T30, human CD26-derived 13 mer peptide 61 (human); test: peptide microarray
T30 peptide: WNNDIYVKIEPNL
Protocol: as §1, §2

[31] = molecular target: T31, human CD26-derived 13 mer peptide 108 (human); test: peptide microarray
T31 peptide: VNPTVKFFVVNTD
Protocol: as §1, §2

[32] = molecular target: T32, human CD26-derived 13 mer peptide 11 (human); test: peptide microarray
T32 peptide: YLYKQENNILVFN
Protocol: as §1, §2

[33] = molecular target: T33, human CD26-derived 13 mer peptide 120 (human); test: peptide microarray
T33 peptide: QITAPASMLIGDH
Protocol: as §1, §2

[34] = molecular target: T34, human CD26-derived 13 mer peptide 85 (human); test: peptide microarray
T34 peptide: WSPNGTFLAYAQF
Protocol: as §1, §2

[35] = molecular target: T35, human CD26-derived 13 mer peptide 101 (human); test: peptide microarray
T35 peptide: YPKTVRVPYPKAG
Protocol: as §1, §2

[36] = molecular target: T36, human CD26-derived 13 mer peptide 114 (human); test: peptide microarray
T36 peptide: DSLSSVTNATSIQ
Protocol: as §1, §2

[37] = molecular target: T37, human CD26-derived 13 mer peptide 117 (human); test: peptide microarray
T37 peptide: TNATSIQITAPAS
Protocol: as §1, §2

[38] = molecular target: T38, human CD26-derived 13 mer peptide 26 (human); test: peptide microarray
T38 peptide: FGHSINDYSISPD
Protocol: as §1, §2

[39] = molecular target: T39, human CD26-derived 13 mer peptide 111 (human); test: peptide microarray
T39 peptide: FFVVNTDSLSSVT
Protocol: as §1, §2

[40] = molecular target: T40, human CD26-derived 13 mer peptide 83 (human); test: peptide microarray
T40 peptide: SALWWSPNGTFLA
Protocol: as §1, §2

[41] = molecular target: T41, human CD26-derived 13 mer peptide 92 (human); test: peptide microarray
T41 peptide: DTEVPLIEYSFYS
Protocol: as §1, §2

T1 sequence (P27487 29-766 limits assumed): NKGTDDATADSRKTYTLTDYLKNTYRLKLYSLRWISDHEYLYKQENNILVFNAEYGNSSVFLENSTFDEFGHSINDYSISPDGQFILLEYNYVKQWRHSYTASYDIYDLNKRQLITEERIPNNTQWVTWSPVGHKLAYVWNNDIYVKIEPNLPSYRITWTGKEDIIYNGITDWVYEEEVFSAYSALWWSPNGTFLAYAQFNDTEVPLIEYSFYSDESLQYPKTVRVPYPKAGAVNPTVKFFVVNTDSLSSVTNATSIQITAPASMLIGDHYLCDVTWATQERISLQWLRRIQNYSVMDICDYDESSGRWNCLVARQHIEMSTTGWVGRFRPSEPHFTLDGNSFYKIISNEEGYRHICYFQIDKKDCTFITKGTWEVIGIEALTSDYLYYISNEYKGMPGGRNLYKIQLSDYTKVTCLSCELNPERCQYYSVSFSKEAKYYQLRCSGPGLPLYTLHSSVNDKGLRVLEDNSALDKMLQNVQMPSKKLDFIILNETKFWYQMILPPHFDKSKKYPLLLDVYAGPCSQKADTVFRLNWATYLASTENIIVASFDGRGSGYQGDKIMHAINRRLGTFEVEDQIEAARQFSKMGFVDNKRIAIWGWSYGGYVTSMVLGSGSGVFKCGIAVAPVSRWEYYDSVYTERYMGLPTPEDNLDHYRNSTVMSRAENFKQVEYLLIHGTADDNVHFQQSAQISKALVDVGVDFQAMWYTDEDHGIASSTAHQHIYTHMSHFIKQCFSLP

B1: rhuMAb 411 (antibody, human IgG1, kappa, V domains shown)
VH: EVQLVESGAGVKQPGGTLRLTCTASGFSLTTYGVHWVRQAPGKGLEWVGVIWGDGRTDYDAAFMSRVTISKDTSKSTVYLQMNSLRAEDTAVYYCMRNRHDWFDYWGQGTTVTVSS
VL: DILLTQSPSSLSATPGERATITCRASQGIRNNLNWYQQKPGQAPRLLIYYSSNLQSGVPSRFSGSGSGTDFTLTISRLQPEDVAAYYCQQSIKLPFTFGSGTKVEIKR
notes: also called X411
Kd [1]: 0.244 nM
koff [1]: 6.63e-05 s⁻¹
kon [1]: 272000 M⁻¹ s⁻¹
Mean Signal Value [2]: 0
Mean Signal Value [3]: 0
Mean Signal Value [4]: 0.438
Mean Signal Value [5]: 40.8
Mean Signal Value [6]: 8.12
Mean Signal Value [7]: 0
Mean Signal Value [8]: 0.856
Mean Signal Value [9]: 13.7
Mean Signal Value [10]: 0
Mean Signal Value [11]: 0.0673
Mean Signal Value [12]: 0
Mean Signal Value [13]: 0
Mean Signal Value [14]: 17.7
Mean Signal Value [15]: 0.0192
Mean Signal Value [16]: 84.7
Mean Signal Value [17]: 0.308
Mean Signal Value [18]: 0.0385
Mean Signal Value [19]: 0
Mean Signal Value [20]: 0
Mean Signal Value [21]: 0.0433
Mean Signal Value [22]: 0.00481
Mean Signal Value [23]: 0
Mean Signal Value [24]: 12.7
Mean Signal Value [25]: 0.726
Mean Signal Value [26]: 0.0288
Mean Signal Value [27]: 0.197
Mean Signal Value [28]: 23.3
Mean Signal Value [29]: 0.106
Mean Signal Value [30]: 0.0385
Mean Signal Value [31]: 1.33
Mean Signal Value [32]: 5.78
Mean Signal Value [33]: 0.0337
Mean Signal Value [34]: 1.02
Mean Signal Value [35]: 0.00481
Mean Signal Value [36]: 0.00481
Mean Signal Value [37]: 0.00962
Mean Signal Value [38]: 0.0337
Mean Signal Value [39]: 0
Mean Signal Value [40]: 3.64
Mean Signal Value [41]: 11.9

Reference: patent US20070105771A1 (Y S THERAPEUTICS, published 2007)
